The results in this text go back to article PMC10268231 (Nature, 2021).

Holding throughout (assay): cryo-EM structure
One assay deals with T1, PRIM2 (human, UniProt P49643-1 1-509).
T1 sequence (looked up): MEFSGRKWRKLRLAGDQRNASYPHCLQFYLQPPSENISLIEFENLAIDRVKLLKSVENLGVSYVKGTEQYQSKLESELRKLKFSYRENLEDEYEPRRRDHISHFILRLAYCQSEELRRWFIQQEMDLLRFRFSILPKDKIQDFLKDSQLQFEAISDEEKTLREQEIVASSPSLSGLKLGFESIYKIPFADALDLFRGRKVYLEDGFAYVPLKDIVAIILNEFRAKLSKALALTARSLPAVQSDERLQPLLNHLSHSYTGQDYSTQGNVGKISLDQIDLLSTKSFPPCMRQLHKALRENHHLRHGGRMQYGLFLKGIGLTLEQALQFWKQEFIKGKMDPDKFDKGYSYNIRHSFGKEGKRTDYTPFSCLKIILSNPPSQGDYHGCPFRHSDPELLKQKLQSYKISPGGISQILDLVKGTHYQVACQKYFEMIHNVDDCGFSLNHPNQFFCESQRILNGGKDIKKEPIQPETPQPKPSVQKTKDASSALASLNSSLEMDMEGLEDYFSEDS

For another assay, the target named is T2, STN1 (human, UniProt Q9H668 2-368).
T2 sequence: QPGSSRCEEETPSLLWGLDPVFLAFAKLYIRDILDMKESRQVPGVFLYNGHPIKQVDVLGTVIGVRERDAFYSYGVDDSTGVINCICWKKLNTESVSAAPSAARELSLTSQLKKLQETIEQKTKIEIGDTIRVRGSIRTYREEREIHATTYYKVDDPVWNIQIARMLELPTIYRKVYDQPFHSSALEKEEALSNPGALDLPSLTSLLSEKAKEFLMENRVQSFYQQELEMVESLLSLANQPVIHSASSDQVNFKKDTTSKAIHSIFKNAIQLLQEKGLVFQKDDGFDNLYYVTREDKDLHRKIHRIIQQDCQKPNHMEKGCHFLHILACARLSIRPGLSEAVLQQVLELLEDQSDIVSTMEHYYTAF

In a further assay the target is T3, POLA2 (human, UniProt Q14181-1 1-598).
T3 sequence (looked up): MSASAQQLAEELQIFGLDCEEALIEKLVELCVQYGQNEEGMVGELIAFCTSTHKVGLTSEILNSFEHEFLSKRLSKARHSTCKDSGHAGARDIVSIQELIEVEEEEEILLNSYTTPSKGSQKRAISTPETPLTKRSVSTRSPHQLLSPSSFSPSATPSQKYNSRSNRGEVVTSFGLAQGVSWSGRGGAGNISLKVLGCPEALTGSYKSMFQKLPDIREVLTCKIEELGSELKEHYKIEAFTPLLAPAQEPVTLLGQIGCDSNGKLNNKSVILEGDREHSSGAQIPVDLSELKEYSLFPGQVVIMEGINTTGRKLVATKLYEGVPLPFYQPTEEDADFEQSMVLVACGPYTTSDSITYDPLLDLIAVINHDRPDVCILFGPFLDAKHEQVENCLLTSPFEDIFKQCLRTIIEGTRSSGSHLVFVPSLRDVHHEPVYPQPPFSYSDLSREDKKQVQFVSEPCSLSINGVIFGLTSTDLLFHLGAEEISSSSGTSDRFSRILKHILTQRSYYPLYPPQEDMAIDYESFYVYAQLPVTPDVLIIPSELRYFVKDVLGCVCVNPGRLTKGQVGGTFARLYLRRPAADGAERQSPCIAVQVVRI

A further assay addresses T4, PRIM1 (human, UniProt P49642 2-420).
T4 sequence: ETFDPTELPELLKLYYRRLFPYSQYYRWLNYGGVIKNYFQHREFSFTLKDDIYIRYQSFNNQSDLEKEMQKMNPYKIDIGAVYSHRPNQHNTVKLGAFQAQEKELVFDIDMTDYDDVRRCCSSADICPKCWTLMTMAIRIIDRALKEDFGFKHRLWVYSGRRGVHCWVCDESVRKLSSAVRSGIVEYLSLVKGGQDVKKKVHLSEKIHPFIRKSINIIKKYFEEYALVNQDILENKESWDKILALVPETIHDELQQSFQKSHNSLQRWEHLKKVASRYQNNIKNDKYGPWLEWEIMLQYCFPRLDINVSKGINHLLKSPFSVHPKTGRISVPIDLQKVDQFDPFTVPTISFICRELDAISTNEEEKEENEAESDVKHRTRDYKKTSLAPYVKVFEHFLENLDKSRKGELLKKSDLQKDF

For assay [1], the target named is DNA polymerase-α–primase (Polα–primase) complex, PRIM1–PRIM2–POLA1–POLA2, full-length (human, UniProt P09884 1-1462; Q14181-1 1-598; P49642 2-420; P49643-1 1-509).

B1: TEN1 (natural protein, human)
chain: LPKPGTYYLPWEVSAGQVPDGSTLRTFGRLCLYDMIQSRVTLMAQHGSDQHQVLVCTKLVEPFHAQVGSLYIVLGELQHQQDRGSVVKARVLTCVEGMNLPLLEQAIREQRLYKQERGGSQ
In the case of B1, the binding result with PRIM2, with STN1, with POLA2 and with PRIM1 was “binds” each time.

B2: CTC1–STN1–TEN1 (CST) complex (complex, human)
chain 1: MAAGRAQVPSSEQAWLEDAQVFIQKTLCPAVKEPNVQLTPLVIDCVKTVWLSQGRNQGSTLPLSYSFVSVQDLKTHQRLPCCSHLSWSSSAYQAWAQEAGPNGNPLPREQLLLLGTLTDLSADLEQECRNGSLYVRDNTGVLSCELIDLDLSWLGHLFLFPRWSYLPPARWNSSGEGHLELWDAPVPVFPLTISPGPVTPIPVLYPESASCLLRLRNKLRGVQRNLAGSLVRLSALVKSKQKAYFILSLGRSHPAVTHVSIIVQVPAQLVWHRALRPGTAYVLTELRVSKIRGQRQHVWMTSQSSRLLLLKPECVQELELELEGPLLEADPKPLPMPSNSEDKKDPESLVRYSRLLSYSGAVTGVLNEPAGLYELDGQLGLCLAYQQFRGLRRVMRPGVCLQLQDVHLLQSVGGGTRRPVLAPCLRGAVLLQSFSRQKPGAHSSRQAYGASLYEQLVWERQLGLPLYLWATKALEELACKLCPHVLRHHQFLQHSSPGSPSLGLQLLAPTLDLLAPPGSPVRNAHNEILEEPHHCPLQKYTRLQTPSSFPTLATLKEEGQRKAWASFDPKALLPLPEASYLPSCQLNRRLAWSWLCLLPSAFCPAQVLLGVLVASSHKGCLQLRDQSGSLPCLLLAKHSQPLSDPRLIGCLVRAERFQLIVERDVRSSFPSWKELSMPGFIQKQQARVYVQFFLADALILPVPRPCLHSATPSTPQTDPTGPEGPHLGQSRLFLLCHKEALMKRNFCVPPGASPEVPKPALSFYVLGSWLGGTQRKEGTGWGLPEPQGNDDNDQKVHLIFFGSSVRWFEFLHPGQVYRLIAPGPATPMLFEKDGSSCISRRPLELAGCASCLTVQDNWTLELESSQDIQDVLDANKSLPESSLTDLLSDNFTDSLVSFSAEILSRTLCEPLVASLWMKLGNTGAMRRCVKLTVALETAECEFPPHLDVYIEDPHLPPSLGLLPGARVHFSQLEKRVSRSHNVYCCFRSSTYVQVLSFPPETTISIPLPHIYLAELLQGGQSPFQATASCHIVSVFSLQLFWVCAYCTSICRQGKCTRLGSTCPTQTAISQAIIRLLVEDGTAEAVVTCRNHHVAAALGLCPREWASLLDFVQVPGRVVLQFAGPGAQLESSARVDEPMTMFLWTLCTSPSVLRPIVLSFELERKPSKIVPLEPPRLQRFQCGELPFLTHVNPRLRLSCLSIRESEYSSSLGILASSC
chain 2: T2 sequence
chain 3: B1 chain
As to B2, the “stoichiometry N” value in assay [1] is 1.
